Assay [1] deals with T1, Taf12, subunit of Komagataella phaffii TFIID (Komagataella phaffii, UniProt F2QSK7 1-609).
T1 construct: Taf12, TFIID subunit of the yeast Komagataella phaffii (formerly Pichia pastoris); histone-fold domain modelled in the cryo-EM map; source: endogenous, K. phaffii nuclear extract; co-purified in TFIID by SBP-tagged Taf2 (streptavidin beads, sucrose gradient)
T1 sequence (looked up): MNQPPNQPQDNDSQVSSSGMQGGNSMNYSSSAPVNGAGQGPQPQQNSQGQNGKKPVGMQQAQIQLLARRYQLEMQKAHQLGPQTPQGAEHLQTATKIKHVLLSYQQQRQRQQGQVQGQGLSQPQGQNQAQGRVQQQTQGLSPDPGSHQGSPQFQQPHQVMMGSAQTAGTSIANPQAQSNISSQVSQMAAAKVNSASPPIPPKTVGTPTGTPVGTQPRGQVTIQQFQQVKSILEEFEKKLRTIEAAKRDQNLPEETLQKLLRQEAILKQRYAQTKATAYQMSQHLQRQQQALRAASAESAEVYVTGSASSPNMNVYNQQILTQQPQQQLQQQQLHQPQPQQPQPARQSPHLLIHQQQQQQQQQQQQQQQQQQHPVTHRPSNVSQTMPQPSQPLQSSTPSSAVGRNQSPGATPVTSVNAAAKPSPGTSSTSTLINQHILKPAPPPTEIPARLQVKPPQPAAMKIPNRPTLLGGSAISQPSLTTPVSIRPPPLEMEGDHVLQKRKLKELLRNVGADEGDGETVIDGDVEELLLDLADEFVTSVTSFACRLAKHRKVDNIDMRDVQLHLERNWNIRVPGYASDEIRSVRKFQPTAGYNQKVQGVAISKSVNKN
In words: cross-linking; 50 µg purified TFIID, 3 mM BS3, 2 h at 25 °C; trypsin, SCX fractionation, Orbitrap Fusion MS; pLink and Nexus, 5% FDR. The following applies: both partners purified.

The target of assay [2] is T2, Taf5, subunit of Komagataella phaffii TFIID (Komagataella phaffii, UniProt F2QWD3 1-722).
T2 construct: Taf5, TFIID subunit of the yeast Komagataella phaffii (formerly Pichia pastoris); WD40 repeat and NTD (residues 99–243) modelled in the cryo-EM map; two copies in holo-TFIID; source: endogenous, K. phaffii nuclear extract; co-purified in TFIID by SBP-tagged Taf2 (streptavidin beads, sucrose gradient)
T2 sequence (looked up): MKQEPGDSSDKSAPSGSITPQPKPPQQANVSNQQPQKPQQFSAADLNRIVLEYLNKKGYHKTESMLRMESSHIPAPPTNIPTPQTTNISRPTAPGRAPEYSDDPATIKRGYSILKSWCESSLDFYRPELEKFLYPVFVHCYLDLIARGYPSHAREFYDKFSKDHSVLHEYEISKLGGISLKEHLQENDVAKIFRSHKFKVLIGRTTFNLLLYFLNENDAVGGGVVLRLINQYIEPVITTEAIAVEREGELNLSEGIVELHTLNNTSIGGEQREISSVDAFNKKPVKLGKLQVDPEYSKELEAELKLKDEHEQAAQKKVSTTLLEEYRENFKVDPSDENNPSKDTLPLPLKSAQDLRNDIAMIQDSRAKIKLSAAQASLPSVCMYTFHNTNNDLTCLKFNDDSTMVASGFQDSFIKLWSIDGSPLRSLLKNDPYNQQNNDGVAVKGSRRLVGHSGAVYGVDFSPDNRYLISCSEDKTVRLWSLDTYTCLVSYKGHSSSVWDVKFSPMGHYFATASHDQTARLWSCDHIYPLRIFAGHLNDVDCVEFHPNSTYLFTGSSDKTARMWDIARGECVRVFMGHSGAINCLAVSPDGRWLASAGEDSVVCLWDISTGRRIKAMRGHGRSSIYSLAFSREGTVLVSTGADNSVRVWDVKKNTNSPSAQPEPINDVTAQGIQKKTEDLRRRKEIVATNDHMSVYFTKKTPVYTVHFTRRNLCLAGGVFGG
The assay is described as above. The following applies: both partners purified.

Assay [3] has as its target T3, Taf4, subunit of Komagataella phaffii TFIID (Komagataella phaffii, UniProt F2QWX2 1-411).
T3 construct: Taf4, TFIID subunit of the yeast Komagataella phaffii (formerly Pichia pastoris); histone-fold domain modelled in the cryo-EM map; source: endogenous, K. phaffii nuclear extract; co-purified in TFIID by SBP-tagged Taf2 (streptavidin beads, sucrose gradient)
T3 sequence (looked up): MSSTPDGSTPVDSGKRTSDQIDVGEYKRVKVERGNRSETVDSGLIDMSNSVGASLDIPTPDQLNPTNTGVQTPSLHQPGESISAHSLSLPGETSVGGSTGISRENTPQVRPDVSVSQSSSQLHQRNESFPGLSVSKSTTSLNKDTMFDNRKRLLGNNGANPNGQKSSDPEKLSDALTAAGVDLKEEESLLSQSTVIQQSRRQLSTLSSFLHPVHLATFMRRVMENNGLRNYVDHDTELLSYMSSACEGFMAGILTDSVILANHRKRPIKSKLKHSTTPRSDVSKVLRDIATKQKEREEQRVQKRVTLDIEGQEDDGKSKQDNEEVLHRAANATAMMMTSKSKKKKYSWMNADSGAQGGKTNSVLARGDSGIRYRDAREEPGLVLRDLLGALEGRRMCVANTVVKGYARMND
The assay is described as above. The following applies: both partners purified.

Assay [4] deals with T4, Taf2 with C-terminal streptavidin-binding peptide tag, subunit of Komagataella phaffii TFIID (Komagataella phaffii, UniProt F2QRH9 1-1571).
T4 construct: Taf2, TFIID subunit of the yeast Komagataella phaffii (formerly Pichia pastoris); residues 36 to 1194 modelled in the cryo-EM map; bait of the purification; also called SBP-tagged Taf2; source: K. phaffii strain with SBP-tagged Taf2, nuclear extract; purified (streptavidin beads, biotin elution, sucrose gradient)
In words: affinity purification with mass spectrometry; TFIID purified from K. phaffii nuclear extract by the SBP tag at the C-terminus of Taf2 (streptavidin beads, 250 mM potassium acetate, elution with 10 mM biotin, 10–30% sucrose gradient); SDS-PAGE and mass spectrometry of the purified complex. As to conditions: partners not purified.

Assay [5] concerns the target T5, Taf8, subunit of Komagataella phaffii TFIID (Komagataella phaffii, UniProt F2QT15 1-517).
T5 construct: Taf8, TFIID subunit of the yeast Komagataella phaffii (formerly Pichia pastoris); putative helices placed in the cryo-EM map; also called KpTaf8; source: endogenous, K. phaffii nuclear extract; co-purified in TFIID by SBP-tagged Taf2 (streptavidin beads, sucrose gradient)
T5 sequence (looked up): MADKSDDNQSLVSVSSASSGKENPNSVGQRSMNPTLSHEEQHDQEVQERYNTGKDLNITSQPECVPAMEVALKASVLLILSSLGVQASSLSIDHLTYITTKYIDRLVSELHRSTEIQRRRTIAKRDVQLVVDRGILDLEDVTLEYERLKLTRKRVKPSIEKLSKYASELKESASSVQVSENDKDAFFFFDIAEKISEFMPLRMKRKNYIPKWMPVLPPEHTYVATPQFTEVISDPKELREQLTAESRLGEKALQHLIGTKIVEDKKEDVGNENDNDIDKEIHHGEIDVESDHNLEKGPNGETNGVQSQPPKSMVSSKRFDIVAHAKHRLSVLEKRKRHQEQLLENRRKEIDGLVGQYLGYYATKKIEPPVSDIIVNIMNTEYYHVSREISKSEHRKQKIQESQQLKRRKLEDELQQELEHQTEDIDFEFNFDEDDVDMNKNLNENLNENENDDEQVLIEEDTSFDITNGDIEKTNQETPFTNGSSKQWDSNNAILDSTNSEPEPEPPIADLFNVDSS
In words: cryo-EM structure; purified TFIID (0.4 µM) with two-fold excess of TFIIA and 2.5–3-fold excess of pGAP promoter DNA, cross-linked with 0.1% glutaraldehyde; focused refinement of the lobes (Taf2 lobe 4.5 Å, Twin lobe 4.8 Å); homology models docked. The following applies: both partners purified.

B1: Taf11, subunit of Komagataella phaffii TFIID (natural protein, UniProt F2QRB1 1-281, looked up)
chain: MSPKPESEIDQGPSVSVTSAEEKSRLEEVKDVHEDPKAEEGLVSAPQGSDTLGQEGKTEKEQNEAKGDIEEESEESAEEDEEEEEEIVDDQISYALNYLFQDIHEKIRLRETQRDTTQDEFELSRQEKVGLLLENFDQDQMTRYEFFRRANVNKSVAKRIVQSVLGQSINNNVALLVSTVSKMFVGEMVEKAKEVQSRRQKAQILEQISQRKAAIKNIRKRDLDESVVDQIMNSKRIRIPKDEPLSPEDIREAWRLYQLETNVLPSNQWRRQGGGDGNMFR
notes: Taf11, TFIID subunit of the yeast Komagataella phaffii (formerly Pichia pastoris); histone-fold domain modelled in the cryo-EM map; source: endogenous, K. phaffii nuclear extract; co-purified in TFIID by SBP-tagged Taf2 (streptavidin beads, sucrose gradient)
On to B1, for which the binding result in assay [1], in assay [2] and in assay [3] was “binds” throughout.

B2: Taf14, subunit of Komagataella phaffii TFIID (natural protein, UniProt F2QLE3 1-247, looked up)
chain: MSDLKRTVRITTTQNVLKDIPPIEKGFPMRKWSISVSLLNDQGKEIPATIFDKVTYHLHPTFENPVRVFKQPPFKIEEQGWGEFDMKIALTIAEKGGERKISHDLNFLKEKYIVDHVISVPTNKPGLLALLAESGPVPSSEGATTPGLSSVTEKRKTSLVGDVKAKKVKTSSGAVKGGVDLEKLADGLTKLSEDDLLGVVQMVTDNRSPEMNIKNDVDEGEFTMDLYSLPDSLLKSLWEYVKKHADV
notes: Taf14, yeast-specific TFIID subunit of Komagataella phaffii (formerly Pichia pastoris); YEATS domain docked in the Taf2 lobe of the cryo-EM map; source: endogenous, K. phaffii nuclear extract; co-purified in TFIID by SBP-tagged Taf2 (streptavidin beads, sucrose gradient)
As for B2, the binding result in assay [4] and in assay [5] was “binds” in each case.

Source of the values: PMC6220335, “Molecular structure of promoter-bound yeast TFIID” (Nature Communications, 2018).
